From publication doi:10.1101/2021.02.05.429362

Tests used:
GFP-Caprin-1(356-386) = GFP-Caprin-1(356-386) (UniProt Q14444); experiment: ITC; settings: 25°C, 150 mM NaCl, 10 mM MgCl2
GFP-USP10(1-28) = GFP-USP10(1-28) (UniProt Q14694); experiment: ITC; settings: 25°C, 150 mM NaCl, 10 mM MgCl2

- KD (GFP-Caprin-1(356-386); pH 5.6): 1.4 μM (1.1 / 1.7)
- KD (GFP-Caprin-1(356-386); pH 7.4): 4 ± 2 µM
- KD (GFP-USP10(1-28); pH 5.6): 0.5 μM (0.3 / 0.7)
- KD (GFP-USP10(1-28); pH 7.4): 1.5 ± 0.5 µM
Substance: G3BP1 NTF2-like domain (G3BP1-NTF2)
